Test results as given in paper PMC5153698.

Biological target: T1, human chemokine receptor CXCR4, C-terminally tagged with Rluc8 or mVenus (human), P61073
T1 chain: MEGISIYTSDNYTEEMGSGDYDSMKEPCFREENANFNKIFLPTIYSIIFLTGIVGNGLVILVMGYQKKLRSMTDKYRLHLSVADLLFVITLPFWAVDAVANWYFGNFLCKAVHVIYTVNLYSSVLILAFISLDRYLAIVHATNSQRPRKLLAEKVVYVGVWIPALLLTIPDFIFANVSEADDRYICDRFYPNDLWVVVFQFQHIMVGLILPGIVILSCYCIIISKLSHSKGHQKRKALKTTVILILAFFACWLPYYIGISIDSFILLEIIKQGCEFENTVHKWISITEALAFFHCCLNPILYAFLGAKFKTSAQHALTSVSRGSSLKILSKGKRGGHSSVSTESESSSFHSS
Test: FRET or BRET
Settings: remark: other sources report otherwise

B1: human chemokine receptor CXCR4, C-terminally tagged with Rluc8 or mVenus, P61073 1-352 (receptor)
chain: MEGISIYTSDNYTEEMGSGDYDSMKEPCFREENANFNKIFLPTIYSIIFLTGIVGNGLVILVMGYQKKLRSMTDKYRLHLSVADLLFVITLPFWAVDAVANWYFGNFLCKAVHVIYTVNLYSSVLILAFISLDRYLAIVHATNSQRPRKLLAEKVVYVGVWIPALLLTIPDFIFANVSEADDRYICDRFYPNDLWVVVFQFQHIMVGLILPGIVILSCYCIIISKLSHSKGHQKRKALKTTVILILAFFACWLPYYIGISIDSFILLEIIKQGCEFENTVHKWISITEALAFFHCCLNPILYAFLGAKFKTSAQHALTSVSRGSSLKILSKGKRGGHSSVSTESESSSFHSS
  BRET50: 0.11
